From article PMC5253658, “SCIMP is a transmembrane non-TIR TLR adaptor that promotes proinflammatory cytokine production from macrophages” (Nature Communications, 2017) come the findings set out here.

Experiment [1] has as its target T1, His-TLR4-TIR (cytoplasmic TIR domain of mouse TLR4, amino acids 670-835) (mouse, UniProt Q9QUK6 670-835).
T1 construct: TLR4, mouse, cytoplasmic TIR domain, amino acids 670-835; codon-optimized gene from Genscript; subcloned into pET28a; also called His-tagged TLR4-TIR domain; recombinant TLR4-TIR; source: E. coli, purified (Ni-NTA)
T1 sequence (looked up): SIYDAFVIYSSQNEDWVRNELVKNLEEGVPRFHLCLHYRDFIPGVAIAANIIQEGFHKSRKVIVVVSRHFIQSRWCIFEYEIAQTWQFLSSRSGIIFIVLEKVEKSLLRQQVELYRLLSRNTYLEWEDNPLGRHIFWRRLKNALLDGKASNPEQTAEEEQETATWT
Kind of experiment: other fluorescence titration; BODIPY FL-labelled SCIMP-T1 titrated with unlabelled TLR4-TIR; 25 °C, 30 mM Tris pH 7.4, 150 mM NaCl, 1 mM dithiothreitol; curve fit (Grafit). The note with it: both partners purified.

For experiment [2], the target named is T1, His-TLR4-TIR (cytoplasmic TIR domain of …). Briefly: pull-down; GST-SCIMP (T1, T2 or T1 mutants) as bait, recombinant His-TLR4-TIR as prey; immunoblot against the His tag. The note with it: both partners purified.

B1: fluorescently labelled recombinant SCIMP-T1 (BODIPY FL) (domain or fragment)
chain: not shown
modifications: labelled with BODIPY FL Iodoacetamide
notes: SCIMP, mouse, T1, amino acids 29-150; also called labelled SCIMP; fluorescently labelled SCIMP-T1; source: E. coli, purified
For B1, the Kd in experiment [1] was 212 nM.

B2: GST-SCIMP-T1 (entire intracellular region of murine SCIMP, amino acids 29-150) (domain or fragment)
chain: not shown
notes: subcloned into pGEX6p-1; also called SCIMP-GST; source: E. coli, purified (glutathione-Sepharose beads)
For the molecule B2, the binding result in experiment [2] is “binds”.

B3: GST-SCIMP-T2 (C terminal region of murine SCIMP, amino acids 93-150) (domain or fragment)
chain: not shown
notes: SCIMP, mouse, C terminal region, amino acids 93-150; lacks the PRD; subcloned into pGEX6p-1; source: E. coli, purified (glutathione-Sepharose beads)
In the case of B3, the binding result in experiment [2] is “binds”.

B4: GST-SCIMP-T1 Y96F (domain or fragment)
chain: not shown
notes: SCIMP, mouse, T1, amino acids 29-150, Y96F; also called (unphosphorylated) Y96F SCIMP mutant; source: E. coli, purified (glutathione-Sepharose beads)
Regarding B4, the binding result in experiment [2] is “binds”.
